Tests used:
[1] = target: T1, CD20 (B-lymphocyte antigen), expressed on HEK293T cells (human) (UniProt P11836); experiment: flow cytometry (cell binding); conditions: no shift on untransfected HEK293T, DPBS with 4.5 g/L glucose, 5 mM MgCl2, 0.1 mg/mL yeast tRNA, 1 g/L BSA (10% FBS in flow assay), on ice 30 min, aptamer heated 95 C 5 min and snap-cooled, pH …
T1 sequence: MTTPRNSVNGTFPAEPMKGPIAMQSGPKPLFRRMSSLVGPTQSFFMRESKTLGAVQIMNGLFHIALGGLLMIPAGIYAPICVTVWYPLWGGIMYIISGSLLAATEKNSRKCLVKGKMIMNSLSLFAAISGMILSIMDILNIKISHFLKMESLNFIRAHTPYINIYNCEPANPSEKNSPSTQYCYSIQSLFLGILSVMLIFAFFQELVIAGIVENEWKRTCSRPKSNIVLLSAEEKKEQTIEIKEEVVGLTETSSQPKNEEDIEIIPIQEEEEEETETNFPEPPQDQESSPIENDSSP

[2] = target: T2, CD20 on Pre-B ALL bone marrow cells (human) (UniProt P11836); experiment: flow cytometry (cell binding); conditions: T-ALL (CD20-low) control 1.5%, DPBS with 4.5 g/L glucose, 5 mM MgCl2, 0.1 mg/mL yeast tRNA, 1 g/L BSA (10% FBS in flow assay), on ice 30 min, aptamer heated 95 C 5 min and snap-cooled, pH …
T2 sequence: T1 sequence

ATACCAGCTTATTCAATTGGAATAAGGGGGTATTACTGTCTGGTAAACAAACGCTATGCGAGGGGATTCAAGATAGTAAGTGCAATCT [AP-1]
Kd [1]: 96.9 nM | binding signal (% positive cells) [2]: 71.4
